Target: Integrin αIIbβ3 (human (endogenous in platelets)) (UniProt P05106)
Assay: cryo-EM structure

stoichiometry N: 2
Substance: Integrin αIIbβ3 (from UniProt P05106 27-788) (complex)

From publication PMC11623648
